Here are results for one substance from article PMC5716544.

The target of this test is functional streptavidin subunit with N-terminal cysteine and His-tag (Streptomyces avidinii) (UniProt P22629). Briefly: refolding of mixed subunits, purification via the His-tag of one subunit, SDS-PAGE of heated and unheated samples; solubilized inclusion bodies mixed at a 1:10 ratio before refolding; tetramer purified via the His-tag of the cysteine-bearing subunit; gel of samples heated 5 min to 95°C (monomers) and of unheated samples (tetramers), room temperature.

As a reminder, the stoichiometry N is the number of molecules, sites or subunits per partner or assembly.

Take “functional SA subunit devoid of cysteine and His-tag (domain or fragment)”: the stoichiometry N is 3.
